This passage reports self-cleavage results from the RNAGym collection of RNA variant scans (doi:10.7554/elife.90254).

First the molecules themselves.
B1: LINE1-full (parent)
chain: UACGUAGGUGGUUUUCCCCUGAUAGUGCUAAGGGGGCCUGGAAGUUUGGACUGGGCAGAGCUCAACACAGCGUGGCAAAGUGGCUGUGGCUAGACUGCCUCUCUGGAUUCCUCGUCACUCAGCAGGGCAUCUCUGAGAGAAAUGCC

The data set covers variants of B1. The data set can be described thus: self-cleavage, relative activity (ratio to wild type); higher = more cleavage; in vitro, sequencing; the parent is a self-cleaving ribozyme.
UACGUAGGUGGUUUUCCCCUGAUAGUGCUAAGGGGGCCUGGAAGUUUGGACUGGGCAGAGCUCAACACAGCGUGGCAAAGUGGCUGUGGCUAGACUGCCUCUCUGGAUUCCUCGUCCCUCAGCGGGGCAUCUCUGAGAGAAAUGCC: the self-cleavage turned out to be 1.7.
As for UACGUAGGUGGUUUUCCCCUGAUAGUGCUAAGGGGGCCUGGAAGUUUGGACUGGGCAGAGCUCAACACAGCGUGGCAAAGUGGCUGUGGCUAGACUGCCUCUCUGGAUUCCUCGUCCCUCAGCUGGGCAUCUCUGAGAGAAAUGCC, the figure is 1.14; as for UACGUAGGUGGUUUUCCCCUGAUAGUGCUAAGGGGGCCUGGAAGUUUGGACUGGGCAGAGCUCAACACAGCGUGGCAAAGUGGCUGUGGCUAGACUGCCUCUCUGGAUUCCUCGUUACUCAGCCGGGCAUCUCUGAGAGAAAUGCC, 1.6.
With UACGUAGGUGGUUUUCCCCUGAUAGUGCUAAGGGGGCCUGGAAGUUUGGACUGGGCAGAGCUCAACACAGCGUGGCAAAGUGGCUGUGGCUAGACUGCCUCUCUGGAUUCCUCGUUACUCAGCUGGGCAUCUCUGAGAGAAAUGCC the figure was 1.87; with UACGUAGGUGGUUUUCCCCUGAUAGUGCUAAGGGGGCCUGGAAGUUUGGACUGGGCAGAGCUCAACACAGCGUGGCAAAGUGGCUGUGGCUAGACUGCCUCUCUGGAUUCCUCGGCACUCAGCAGGGCGUCUCUGAGAGAAAUGCC, 1.16.
For the variant UACGUAGGUGGUUUUCCCCUGAUAGUGCUAAGGGGGCCUGGAAGUUUGGACUGGGCAGAGCUCAACACAGCGUGGCAAAGUGGCUGUGGCUAGACUGCCUCUCUGGAUUCCUCGUUACUCAGCAGGGCAUCUCUGAGUGAAAUGCC, the self-cleavage is 1.41.
Consider UACGUAGGUGGUUUUCCCCUGAUAGUGCUAAGGGGGCCUGGAAGUUUGGACUGGGCAGAGCUCAACACAGCGUGGCAAAGUGGCUGUGGCUAGACUGCCUCUCUGGAUUCCUCGUUACUCAGCAGGGCGUCUCUGAGAGAAAUGCC, for which the self-cleavage turned out to be 0.93.
Consider UACGUAGGUGGUUUUCCCCUGAUAGUGCUAAGGGGGCCUGGAAGUUUGGACUGGGCAGAGCUCAACACAGCGUGGCAAAGUGGCUGUGGCUAGACUGCCUCUCUGGAUUCCUCGUUACUCAGCAGGGCAUCUCCGAGAGAAAUGCC, for which the self-cleavage amounted to 1.11.
Turning to UACGUAGGUGGUUUUCCCCUGAUAGUGCUAAGGGGGCCUGGAAGUUUGGACUGGGCAGAGCUCAACACAGCGUGGCAAAGUGGCUGUGGCUAGACUGCCUCUCUGGAUUCCUCGUCCCUCAGCAGGGCAUCUCUGAGAGAAAUACC, the self-cleavage was 1.79.
Consider UACGUAGGUGGUUUUCCCCUGAUAGUGCUAAGGGGGCCUGGAAGUUUGGACUGGGCAGAGCUCAACACAGCGUGGCAAAGUGGCUGUGGCUAGACUGCCUCUCUGGAUUCCUCGGCACUCAGCAGGGCAUCUCUGGGAGAAAUGCC, for which the self-cleavage is 1.53.
With UACGUAGGUGGUUUUCCCCUGAUAGUGCUAAGGGGGCCUGGAAGUUUGGACUGGGCAGAGCUCAACACAGCGUGGCAAAGUGGCUGUGGCUAGACUGCCUCUCUGGAUUCCUCGGCACUCAGCAUGGCAUCUCUGAGAGAAAUGCC the figure was 0.54; with UACGUAGGUGGUUUUCCCCUGAUAGUGCUAAGGGGGCCUGGAAGUUUGGACUGGGCAGAGCUCAACACAGCGUGGCAAAGUGGCUGUGGCUAGACUGCCUCUCUGGAUUCCUCGUAACUCAGCAGGGCAUCACUGAGAGAAAUGCC, 0.67; with UACGUAGGUGGUUUUCCCCUGAUAGUGCUAAGGGGGCCUGGAAGUUUGGACUGGGCAGAGCUCAACACAGCGUGGCAAAGUGGCUGUGGCUAGACUGCCUCUCUGGAUUCCUCGUCCCUCAGCAGGGCAUCUCAGAGAGAAAUGCC, 1.53.
As for UACGUAGGUGGUUUUCCCCUGAUAGUGCUAAGGGGGCCUGGAAGUUUGGACUGGGCAGAGCUCAACACAGCGUGGCAAAGUGGCUGUGGCUAGACUGCCUCUCUGGAUUCCUCGUCCCUCAGCAGAGCAUCUCUGAGAGAAAUGCC, the self-cleavage came out at 1.64.
As to UACGUAGGUGGUUUUCCCCUGAUAGUGCUAAGGGGGCCUGGAAGUUUGGACUGGGCAGAGCUCAACACAGCGUGGCAAAGUGGCUGUGGCUAGACUGCCUCUCUGGAUUCCUCGUAACCCAGCAGGGCAUCUCUGAGAGAAAUGCC, the self-cleavage stood at 1.27.
In the case of UACGUAGGUGGUUUUCCCCUGAUAGUGCUAAGGGGGCCUGGAAGUUUGGACUGGGCAGAGCUCAACACAGCGUGGCAAAGUGGCUGUGGCUAGACUGCCUCUCUGGAUUCCUCGUUACUCAGCAGGGCAUCCCUGAGAGAAAUGCC, the self-cleavage is 0.91.
With UACGUAGGUGGUUUUCCCCUGAUAGUGCUAAGGGGGCCUGGAAGUUUGGACUGGGCAGAGCUCAACACAGCGUGGCAAAGUGGCUGUGGCUAGACUGCCUCUCUGGAUUCCUCGUAACUCAGCAGGGCAUCUCUGAGAGAAACGCC the figure was 0.71; with UACGUAGGUGGUUUUCCCCUGAUAGUGCUAAGGGGGCCUGGAAGUUUGGACUGGGCAGAGCUCAACACAGCGUGGCAAAGUGGCUGUGGCUAGACUGCCUCUCUGGAUUCCUCGUUACUCAGCAGGGCAUCUCUGAGAGAGAUGCC, 1.42.
In the case of UACGUAGGUGGUUUUCCCCUGAUAGUGCUAAGGGGGCCUGGAAGUUUGGACUGGGCAGAGCUCAACACAGCGUGGCAAAGUGGCUGUGGCUAGACUGCCUCUCUGGAUUCCUCGUAACUCUGCAGGGCAUCUCUGAGAGAAAUGCC, the self-cleavage is 1.21.
Regarding UACGUAGGUGGUUUUCCCCUGAUAGUGCUAAGGGGGCCUGGAAGUUUGGACUGGGCAGAGCUCAACACAGCGUGGCAAAGUGGCUGUGGCUAGACUGCCUCUCUGGAUUCCUCGUUACUCGGCAGGGCAUCUCUGAGAGAAAUGCC, the self-cleavage was 1.57.
Regarding UACGUAGGUGGUUUUCCCCUGAUAGUGCUAAGGGGGCCUGGAAGUUUGGACUGGGCAGAGCUCAACACAGCGUGGCAAAGUGGCUGUGGCUAGACUGCCUCUCUGGAUUCCUCGUCCCUCAGCAGGGCAUCUCUGAGAGAGAUGCC, the self-cleavage was determined as 2.57.
With UACGUAGGUGGUUUUCCCCUGAUAGUGCUAAGGGGGCCUGGAAGUUUGGACUGGGCAGAGCUCAACACAGCGUGGCAAAGUGGCUGUGGCUAGACUGCCUCUCUGGAUUCCUCGUGACUCAGCAGGGCAUCUCCGAGAGAAAUGCC the figure was 0.99; with UACGUAGGUGGUUUUCCCCUGAUAGUGCUAAGGGGGCCUGGAAGUUUGGACUGGGCAGAGCUCAACACAGCGUGGCAAAGUGGCUGUGGCUAGACUGCCUCUCUGGAUUCCUCGGCACUCAGCAGGGCAUCUCUGAGAGGAAUGCC, 2; with UACGUAGGUGGUUUUCCCCUGAUAGUGCUAAGGGGGCCUGGAAGUUUGGACUGGGCAGAGCUCAACACAGCGUGGCAAAGUGGCUGUGGCUAGACUGCCUCUCUGGAUUCCUCGUCCCUCAGCAGGGCACCUCUGAGAGAAAUGCC, 2.3.
For UACGUAGGUGGUUUUCCCCUGAUAGUGCUAAGGGGGCCUGGAAGUUUGGACUGGGCAGAGCUCAACACAGCGUGGCAAAGUGGCUGUGGCUAGACUGCCUCUCUGGAUUCCUCGUCCCUCAGCAGGGCAUCUCUGAGAGAAAUGCC, the self-cleavage worked out at 1.75.
Take UACGUAGGUGGUUUUCCCCUGAUAGUGCUAAGGGGGCCUGGAAGUUUGGACUGGGCAGAGCUCAACACAGCGUGGCAAAGUGGCUGUGGCUAGACUGCCUCUCUGGAUUCCUCGUCGCUCAGCAGGGCAUCUCUGAGAGAAAUGCC: the self-cleavage is 1.49.
As for UACGUAGGUGGUUUUCCCCUGAUAGUGCUAAGGGGGCCUGGAAGUUUGGACUGGGCAGAGCUCAACACAGCGUGGCAAAGUGGCUGUGGCUAGACUGCCUCUCUGGAUUCCUCGUAACUCAGCAGGGCAUCUCUGAGAGAACUGCC, the figure is 1.54; as for UACGUAGGUGGUUUUCCCCUGAUAGUGCUAAGGGGGCCUGGAAGUUUGGACUGGGCAGAGCUCAACACAGCGUGGCAAAGUGGCUGUGGCUAGACUGCCUCUCUGGAUUCCUCGUCCCUCAGCAGGGCUUCUCUGAGAGAAAUGCC, 1.
With UACGUAGGUGGUUUUCCCCUGAUAGUGCUAAGGGGGCCUGGAAGUUUGGACUGGGCAGAGCUCAACACAGCGUGGCAAAGUGGCUGUGGCUAGACUGCCUCUCUGGAUUCCUCGUCCCGCAGCAGGGCAUCUCUGAGAGAAAUGCC the figure was 2.43.
As for UACGUAGGUGGUUUUCCCCUGAUAGUGCUAAGGGGGCCUGGAAGUUUGGACUGGGCAGAGCUCAACACAGCGUGGCAAAGUGGCUGUGGCUAGACUGCCUCUCUGGAUUCCUCGUUACUCAGCAGGGCAUCUCUGAGAGUAAUGCC, the figure is 0.71; as for UACGUAGGUGGUUUUCCCCUGAUAGUGCUAAGGGGGCCUGGAAGUUUGGACUGGGCAGAGCUCAACACAGCGUGGCAAAGUGGCUGUGGCUAGACUGCCUCUCUGGAUUCCUCGUCCCUCUGCAGGGCAUCUCUGAGAGAAAUGCC, 2.02; as for UACGUAGGUGGUUUUCCCCUGAUAGUGCUAAGGGGGCCUGGAAGUUUGGACUGGGCAGAGCUCAACACAGCGUGGCAAAGUGGCUGUGGCUAGACUGCCUCUCUGGAUUCCUCGUAACUCAGCGGGGCAUCUCUGAGAGAAAUGCC, 1.25.
As for UACGUAGGUGGUUUUCCCCUGAUAGUGCUAAGGGGGCCUGGAAGUUUGGACUGGGCAGAGCUCAACACAGCGUGGCAAAGUGGCUGUGGCUAGACUGCCUCUCUGGAUUCCUCGUUACUCAGCACGGCAUCUCUGAGAGAAAUGCC, the self-cleavage is 1.54.
As for UACGUAGGUGGUUUUCCCCUGAUAGUGCUAAGGGGGCCUGGAAGUUUGGACUGGGCAGAGCUCAACACAGCGUGGCAAAGUGGCUGUGGCUAGACUGCCUCUCUGGAUUCCUCGGCACUCAGCAGGGCAUCUCUGAGGGAAAUGCC, the figure is 2.15.
For UACGUAGGUGGUUUUCCCCUGAUAGUGCUAAGGGGGCCUGGAAGUUUGGACUGGGCAGAGCUCAACACAGCGUGGCAAAGUGGCUGUGGCUAGACUGCCUCUCUGGAUUCCUCGUCCCUCAGCAGGGCAUCUCUGAGAGAAAAGCC, the self-cleavage is 1.38.
With UACGUAGGUGGUUUUCCCCUGAUAGUGCUAAGGGGGCCUGGAAGUUUGGACUGGGCAGAGCUCAACACAGCGUGGCAAAGUGGCUGUGGCUAGACUGCCUCUCUGGAUUCCUCGGCACACAGCAGGGCAUCUCUGAGAGAAAUGCC the figure was 1.36.
As for UACGUAGGUGGUUUUCCCCUGAUAGUGCUAAGGGGGCCUGGAAGUUUGGACUGGGCAGAGCUCAACACAGCGUGGCAAAGUGGCUGUGGCUAGACUGCCUCUCUGGAUUCCUCGUCCCUCAGCAGGGCAUCUCUGAGAGAAGUGCC, the figure is 1.8; as for UACGUAGGUGGUUUUCCCCUGAUAGUGCUAAGGGGGCCUGGAAGUUUGGACUGGGCAGAGCUCAACACAGCGUGGCAAAGUGGCUGUGGCUAGACUGCCUCUCUGGAUUCCUCGGCACUCAGCAGGGCAUCUCUGAGAGAGAUGCC, 1.25; as for UACGUAGGUGGUUUUCCCCUGAUAGUGCUAAGGGGGCCUGGAAGUUUGGACUGGGCAGAGCUCAACACAGCGUGGCAAAGUGGCUGUGGCUAGACUGCCUCUCUGGAUUCCUCGGCACUCAGCAGGGCAUCUCUGAGAGAAAUGUC, 1.1.
